Ten molecules from publication PMC4368675, “A Single parS Sequence from the Cluster of Four Sites Closest to oriC Is Necessary and Sufficient for Proper Chromosome Segregation in Pseudomonas aeruginosa” can be followed below.

For data set [1], the target named is T1, ParB (Pseudomonas aeruginosa, UniProt Q9HT12 1-290).
T1 sequence: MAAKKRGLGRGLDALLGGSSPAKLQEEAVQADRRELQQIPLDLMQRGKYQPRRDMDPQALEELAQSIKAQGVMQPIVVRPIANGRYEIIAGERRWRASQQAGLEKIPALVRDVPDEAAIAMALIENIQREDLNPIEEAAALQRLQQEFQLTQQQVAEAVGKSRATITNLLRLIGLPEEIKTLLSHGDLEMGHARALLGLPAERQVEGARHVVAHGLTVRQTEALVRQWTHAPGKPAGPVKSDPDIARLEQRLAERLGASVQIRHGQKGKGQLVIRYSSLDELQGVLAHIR
Nature of the data set: EMSA; lowest of the wt sites in hierarchy; 10 mM Tris-HCl pH 7.5, 0.5 mM DTT, 50 mM KCl, 1 mM MgCl2, 20 ul, 6 pmol labelled DNA, 18 pmol nonspecific competitor (titrations) or 240 pmol ParB plus 18-180 pmol unlabelled parS2 (dissociation), 15 min 37 C; 5% PAGE in 0.5x TBE. Conditions: protein: recombinant; tags: His6 (pET28-derived pKLB28); chain copies: 2; label: 5'-Cy3 on strand 1; 5' overhang 4 nt at both ends.

Data set [2] has as its target T1, ParB. Briefly: EMSA; hierarchy: below parS10, above parS5; 10 mM Tris-HCl pH 7.5, 0.5 mM DTT, 50 mM KCl, 1 mM MgCl2, 20 ul, 6 pmol labelled DNA, 18 pmol nonspecific competitor (titrations) or 240 pmol ParB plus 18-180 pmol unlabelled parS2 (dissociation), 15 min 37 C; 5% PAGE in 0.5x TBE. Conditions: protein: recombinant; tags: His6 (pET28-derived pKLB28); chain copies: 2; label: 5'-Cy3 on strand 1; 5' overhang 4 nt at both ends. Background: In EMSA bound probe runs differently from free probe, usually more slowly.

In data set [3] the target is T1, ParB. Briefly: EMSA; highest in affinity hierarchy; 10 mM Tris-HCl pH 7.5, 0.5 mM DTT, 50 mM KCl, 1 mM MgCl2, 20 ul, 6 pmol labelled DNA, 18 pmol nonspecific competitor (titrations) or 240 pmol ParB plus 18-180 pmol unlabelled parS2 (dissociation), 15 min 37 C; 5% PAGE in 0.5x TBE. Conditions: protein: recombinant; tags: His6 (pET28-derived pKLB28); chain copies: 2; label: 5'-Cy3 on strand 1; 5' overhang 4 nt at both ends.

The target of data set [4] is T1, ParB. Briefly: EMSA; no specific complex; nonspecific smearing at ParB >5 uM; 10 mM Tris-HCl pH 7.5, 0.5 mM DTT, 50 mM KCl, 1 mM MgCl2, 20 ul, 6 pmol labelled DNA, 18 pmol nonspecific competitor (titrations) or 240 pmol ParB plus 18-180 pmol unlabelled parS2 (dissociation), 15 min 37 C; 5% PAGE in 0.5x TBE. Conditions: protein: recombinant; tags: His6 (pET28-derived pKLB28); chain copies: 2; label: 5'-Cy5 on strand 1; blunt.

The target in data set [5] is T1, ParB. Nature of the data set: EMSA; hierarchy: below parS1/4, equal to parS7, parS9; 10 mM Tris-HCl pH 7.5, 0.5 mM DTT, 50 mM KCl, 1 mM MgCl2, 20 ul, 6 pmol labelled DNA, 18 pmol nonspecific competitor (titrations) or 240 pmol ParB plus 18-180 pmol unlabelled parS2 (dissociation), 15 min 37 C; 5% PAGE in 0.5x TBE. As to conditions: protein: recombinant; tags: His6 (pET28-derived pKLB28); chain copies: 2; label: 5'-Cy3 on strand 1; 5' overhang 4 nt at both ends.

In data set [6] the target is T1, ParB. Briefly: EMSA; no significant difference from wt parS5; unlabelled parS2 competitor; 10 mM Tris-HCl pH 7.5, 0.5 mM DTT, 50 mM KCl, 1 mM MgCl2, 20 ul, 6 pmol labelled DNA, 18 pmol nonspecific competitor (titrations) or 240 pmol ParB plus 18-180 pmol unlabelled parS2 (dissociation), 15 min 37 C; 5% PAGE in 0.5x TBE. As to conditions: protein: recombinant; tags: His6 (pET28-derived pKLB28); chain copies: 2; label: 5'-Cy5 on strand 1; 5' overhang 4 nt at both ends.

Data set [7] addresses T1, ParB. Nature of the data set: EMSA; second in hierarchy; competed by unlabelled parS2; 10 mM Tris-HCl pH 7.5, 0.5 mM DTT, 50 mM KCl, 1 mM MgCl2, 20 ul, 6 pmol labelled DNA, 18 pmol nonspecific competitor (titrations) or 240 pmol ParB plus 18-180 pmol unlabelled parS2 (dissociation), 15 min 37 C; 5% PAGE in 0.5x TBE. As to conditions: protein: recombinant; tags: His6 (pET28-derived pKLB28); chain copies: 2; label: 5'-Cy3 on strand 1; 5' overhang 4 nt at both ends.

Data set [8] addresses T1, ParB. Nature of the data set: EMSA; hierarchy: below parS1/4, equal to parS7, parS8; 10 mM Tris-HCl pH 7.5, 0.5 mM DTT, 50 mM KCl, 1 mM MgCl2, 20 ul, 6 pmol labelled DNA, 18 pmol nonspecific competitor (titrations) or 240 pmol ParB plus 18-180 pmol unlabelled parS2 (dissociation), 15 min 37 C; 5% PAGE in 0.5x TBE. As to conditions: protein: recombinant; tags: His6 (pET28-derived pKLB28); chain copies: 2; label: 5'-Cy3 on strand 1; 5' overhang 4 nt at both ends.

Data set [9] has as its target T1, ParB. Briefly: EMSA; hierarchy: below parS1/4, equal to parS8, parS9; 10 mM Tris-HCl pH 7.5, 0.5 mM DTT, 50 mM KCl, 1 mM MgCl2, 20 ul, 6 pmol labelled DNA, 18 pmol nonspecific competitor (titrations) or 240 pmol ParB plus 18-180 pmol unlabelled parS2 (dissociation), 15 min 37 C; 5% PAGE in 0.5x TBE. Conditions: protein: recombinant; tags: His6 (pET28-derived pKLB28); chain copies: 2; label: 5'-Cy3 on strand 1; 5' overhang 4 nt at both ends; one mismatch as printed.

For data set [10], the target named is T1, ParB. Briefly: EMSA; hierarchy: below parS7-9, above parS6; 10 mM Tris-HCl pH 7.5, 0.5 mM DTT, 50 mM KCl, 1 mM MgCl2, 20 ul, 6 pmol labelled DNA, 18 pmol nonspecific competitor (titrations) or 240 pmol ParB plus 18-180 pmol unlabelled parS2 (dissociation), 15 min 37 C; 5% PAGE in 0.5x TBE. Conditions: protein: recombinant; tags: His6 (pET28-derived pKLB28); chain copies: 2; label: 5'-Cy3 on strand 1; 5' overhang 4 nt at both ends.

B1: parS5 (dsDNA)
DNA 1: AATTCAAGCTTTGTTCTACATGGAACAG
DNA 2: TCGACTGTTCCATGTAGAACAAAGCTTG
Regarding B1, the binding result with ParB [1] is recorded as “binds”.

B2: parS6 (dsDNA)
DNA 1: AATTCAAGCTTCGTTCCACGTGGAAGAG
DNA 2: TCGACTCTTCCACGTGGAACGAAGCTTG
For the molecule B2, in the data set with ParB [2], the binding result was “binds”.

B3: parS2/parS3 (dsDNA)
DNA 1: AATTCAAGCTTTGTTCCACGTGGAACAG
DNA 2: TCGACTGTTCCACGTGGAACAAAGCTTG
As for B3, the binding result in the data set with ParB [3] is on record as “binds”.

B4: nonspecific control (dsDNA)
DNA 1: GATAGCTCTTTGCCATTAAC
DNA 2: GTTAATGGCAAAGAGCTATC
With B4, the binding result with ParB [4] was “no binding”.

B5: parS8 (dsDNA)
DNA 1: AATTCAAGCTTTGTTCCACGAGGCACAG
DNA 2: TCGACTGTGCCTCGTGGAACAAAGCTTG
For B5, the binding result with ParB [5] was “binds”.

B6: parS5* (dsDNA)
DNA 1: AATTCAAGCTTTATTGTATATGGAGCAG
DNA 2: TCGACTGCTCCATATACAATAAAGCTTG
As to B6, the binding result with ParB [6] is “binds”.

B7: parS1/parS4 (dsDNA)
DNA 1: AATTCAAGCTTTGTTCCACGTGGAACCG
DNA 2: TCGACGGTTCCACGTGGAACAAAGCTTG
B7: the binding result in the data set with ParB [7] is “binds”.

B8: parS9 (dsDNA)
DNA 1: AATTCAAGCTTTGTTCCACGAGGAAGAG
DNA 2: TCGACTCTTCCTCGTGGAACAAAGCTTG
For the molecule B8, in the data set with ParB [8], the binding result is given as “binds”.

B9: parS7 (dsDNA)
DNA 1: AATTCAAGCTTTGTTCCACGAGGAACCG
DNA 2: TCGACCGTTCCTCGTGGAACAAAGCTTG
Take B9: the binding result with ParB [9] is on record as “binds”.

B10: parS10 (dsDNA)
DNA 1: AATTCAAGCTTTGTTCCACAGGGAACAG
DNA 2: TCGACTGTTCCCTGTGGAACAAAGCTTG
For the molecule B10, the binding result with ParB [10] is given as “binds”.
